Experimental data reported in paper PMC7979870.

Target: ALFA peptide and His8-tagged ZAC orthologue from Oryzias latipes (OlZAC) (Oryzias latipes)
Test: negative staining EM with 2D classification; purified OlZAC reconstituted into NAPol amphipol, stained with 2% uranyl acetate, Talos L120C at 120 kV, 2D classification in RELION 3.0

Substance: ALFA peptide and His8-tagged ZAC orthologue from Oryzias latipes (OlZAC) (receptor)
- stoichiometry N: 5
